The experiment has as its target recombinant yeast TBC-DEG (TBCD, TBCE, Arl2) (yeast) (UniProt P40987). In words: SEC. On the technique in general: In gel filtration, larger molecules generally elute earlier.

Among the data in doi:10.1101/2024.01.29.577855 are stoichiometry N values, retold here.

One may read the stoichiometry N as the number of molecules, sites or subunits per partner or assembly.

recombinant yeast TBC-DEG (TBCD, TBCE, Arl2) (yeast), sequence (P40987 whole entry, chain 1 of 3): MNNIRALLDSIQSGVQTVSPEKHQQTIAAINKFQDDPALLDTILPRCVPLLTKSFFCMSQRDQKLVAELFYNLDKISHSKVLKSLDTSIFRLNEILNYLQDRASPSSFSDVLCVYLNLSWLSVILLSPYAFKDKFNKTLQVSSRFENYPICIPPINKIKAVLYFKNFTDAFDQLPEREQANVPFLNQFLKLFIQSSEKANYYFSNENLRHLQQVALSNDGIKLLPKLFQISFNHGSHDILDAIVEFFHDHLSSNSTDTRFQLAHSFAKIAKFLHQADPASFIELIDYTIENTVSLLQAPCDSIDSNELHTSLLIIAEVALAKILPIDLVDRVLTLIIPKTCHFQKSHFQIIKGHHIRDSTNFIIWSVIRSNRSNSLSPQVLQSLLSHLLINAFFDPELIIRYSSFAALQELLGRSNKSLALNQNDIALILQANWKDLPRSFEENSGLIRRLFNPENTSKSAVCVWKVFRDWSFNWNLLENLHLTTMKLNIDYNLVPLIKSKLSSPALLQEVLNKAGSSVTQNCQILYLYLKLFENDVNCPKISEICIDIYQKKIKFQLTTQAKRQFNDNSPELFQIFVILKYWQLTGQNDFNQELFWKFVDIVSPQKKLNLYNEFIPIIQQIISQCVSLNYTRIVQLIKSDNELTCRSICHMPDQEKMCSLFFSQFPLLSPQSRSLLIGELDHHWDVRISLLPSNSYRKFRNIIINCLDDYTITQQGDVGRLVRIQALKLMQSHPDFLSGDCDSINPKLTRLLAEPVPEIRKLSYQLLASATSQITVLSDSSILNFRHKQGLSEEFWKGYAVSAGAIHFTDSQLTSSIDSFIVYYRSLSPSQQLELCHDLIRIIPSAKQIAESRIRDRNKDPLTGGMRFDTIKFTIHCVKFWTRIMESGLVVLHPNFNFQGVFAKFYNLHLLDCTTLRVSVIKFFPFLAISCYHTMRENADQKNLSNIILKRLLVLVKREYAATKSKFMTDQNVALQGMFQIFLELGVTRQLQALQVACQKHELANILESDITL
recombinant yeast TBC-DEG (TBCD, TBCE, Arl2) (yeast), sequence (P39937 whole entry, chain 2 of 3, further chain): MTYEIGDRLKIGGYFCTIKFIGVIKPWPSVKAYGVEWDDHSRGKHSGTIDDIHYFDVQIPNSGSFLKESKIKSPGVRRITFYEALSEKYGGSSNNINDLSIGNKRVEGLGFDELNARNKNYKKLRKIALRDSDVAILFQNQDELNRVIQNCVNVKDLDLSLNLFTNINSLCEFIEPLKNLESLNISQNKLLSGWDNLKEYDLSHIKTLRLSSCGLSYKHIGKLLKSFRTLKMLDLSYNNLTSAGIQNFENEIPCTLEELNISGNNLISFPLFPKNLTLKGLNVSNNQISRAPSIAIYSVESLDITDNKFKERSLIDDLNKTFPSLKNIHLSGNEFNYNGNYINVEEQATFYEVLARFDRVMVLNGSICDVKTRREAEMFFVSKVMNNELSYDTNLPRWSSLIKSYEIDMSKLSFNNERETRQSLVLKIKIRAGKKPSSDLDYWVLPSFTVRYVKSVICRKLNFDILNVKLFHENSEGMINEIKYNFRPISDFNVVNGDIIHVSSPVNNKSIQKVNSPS
recombinant yeast TBC-DEG (TBCD, TBCE, Arl2) (yeast), sequence (P39110 whole entry, chain 3 of 3, further chain): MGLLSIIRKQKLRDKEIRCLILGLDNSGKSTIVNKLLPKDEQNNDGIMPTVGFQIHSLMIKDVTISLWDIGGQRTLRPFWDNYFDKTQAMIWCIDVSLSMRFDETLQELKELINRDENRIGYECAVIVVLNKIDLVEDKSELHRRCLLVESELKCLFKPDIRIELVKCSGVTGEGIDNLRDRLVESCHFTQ

Consider “porcine brain αβ-tubulin heterodimer (from UniProt P02550 1-451; P02554 1-445) (complex)”, for which the stoichiometry N stood at 1.
